Experiment [1] has as its target native spike complex (glycoprotein complex, GPC) of Junin virus (JUNV) (Junin virus (JUNV)).
Experiment [2] concerns the target native spike complex (glycoprotein complex, GPC) of Sabia virus (SABV) (Sabia virus (SABV)).
The target of experiment [3] is GP1WWAV-Fc (GP1 domain of Whitewater Arroyo virus fused at its C' terminus to an antibody Fc portion) (Whitewater Arroyo virus (WWAV)) (UniProt Q911P0). Briefly: SPR (Biacore T200), single cycle kinetics; […]; 1:1 model.
GP1WWAV-Fc (GP1 domain of Whitewater Arroyo virus fused at its C' terminus to an antibody Fc portion) (Whitewater Arroyo virus (WWAV)), sequence (Q911P0 87-241): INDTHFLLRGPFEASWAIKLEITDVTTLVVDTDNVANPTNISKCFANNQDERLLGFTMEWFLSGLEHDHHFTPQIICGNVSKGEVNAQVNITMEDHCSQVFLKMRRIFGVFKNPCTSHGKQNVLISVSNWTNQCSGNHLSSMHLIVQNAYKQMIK
Experiment [4] has as its target GP1GTOV-Fc (GP1 domain of Guanarito virus fused at its C' terminus to an antibody Fc portion) (Guanarito virus (GTOV)) (UniProt Q8AYW1). Briefly: SPR (Biacore T200), single-cycle kinetics; […]; 1:1 model fit. (In SPR one partner is held on a chip, and binding of the other changes the refractive index at the surface.)

GP1GTOV-Fc (GP1 domain of Guanarito virus fused at its C' terminus to an antibody Fc portion) (Guanarito virus (GTOV)), sequence (Q8AYW1 87-240): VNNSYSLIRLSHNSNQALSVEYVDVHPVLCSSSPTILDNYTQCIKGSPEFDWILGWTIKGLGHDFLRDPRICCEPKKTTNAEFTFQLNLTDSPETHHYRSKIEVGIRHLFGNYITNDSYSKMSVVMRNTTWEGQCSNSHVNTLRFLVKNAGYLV
native spike complex (glycoprotein complex, GPC) of Junin virus (JUNV) (Junin virus (JUNV)), sequence (P26313 2-58 limits assumed, chain 1 of 3): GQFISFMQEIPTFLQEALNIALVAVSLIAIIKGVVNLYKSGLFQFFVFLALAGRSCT
native spike complex (glycoprotein complex, GPC) of Junin virus (JUNV) (Junin virus (JUNV)), sequence (P26313 59-251 limits assumed, chain 2 of 3): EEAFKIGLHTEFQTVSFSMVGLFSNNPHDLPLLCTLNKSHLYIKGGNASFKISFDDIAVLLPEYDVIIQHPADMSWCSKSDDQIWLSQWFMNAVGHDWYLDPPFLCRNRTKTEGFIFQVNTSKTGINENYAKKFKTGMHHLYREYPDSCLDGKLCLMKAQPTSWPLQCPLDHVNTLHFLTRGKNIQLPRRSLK
native spike complex (glycoprotein complex, GPC) of Junin virus (JUNV) (Junin virus (JUNV)), sequence (P26313 252-485 limits assumed, chain 3 of 3): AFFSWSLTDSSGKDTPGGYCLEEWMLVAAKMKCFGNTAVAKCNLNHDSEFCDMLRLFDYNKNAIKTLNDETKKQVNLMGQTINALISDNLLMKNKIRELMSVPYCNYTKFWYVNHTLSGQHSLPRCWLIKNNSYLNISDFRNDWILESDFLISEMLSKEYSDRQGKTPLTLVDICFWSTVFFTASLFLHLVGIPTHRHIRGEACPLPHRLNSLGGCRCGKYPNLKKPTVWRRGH
native spike complex (glycoprotein complex, GPC) of Sabia virus (SABV) (Sabia virus (SABV)), sequence (Q90037 2-58, chain 1 of 3): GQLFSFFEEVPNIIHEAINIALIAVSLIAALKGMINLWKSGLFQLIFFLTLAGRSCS
native spike complex (glycoprotein complex, GPC) of Sabia virus (SABV) (Sabia virus (SABV)), sequence (Q90037 59-254, chain 2 of 3): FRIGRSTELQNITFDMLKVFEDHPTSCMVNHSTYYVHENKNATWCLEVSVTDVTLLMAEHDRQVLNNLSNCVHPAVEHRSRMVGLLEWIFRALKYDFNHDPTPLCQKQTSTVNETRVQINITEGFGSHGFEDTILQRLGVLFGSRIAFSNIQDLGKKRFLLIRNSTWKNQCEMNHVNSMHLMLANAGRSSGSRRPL
native spike complex (glycoprotein complex, GPC) of Sabia virus (SABV) (Sabia virus (SABV)), sequence (Q90037 255-488, chain 3 of 3): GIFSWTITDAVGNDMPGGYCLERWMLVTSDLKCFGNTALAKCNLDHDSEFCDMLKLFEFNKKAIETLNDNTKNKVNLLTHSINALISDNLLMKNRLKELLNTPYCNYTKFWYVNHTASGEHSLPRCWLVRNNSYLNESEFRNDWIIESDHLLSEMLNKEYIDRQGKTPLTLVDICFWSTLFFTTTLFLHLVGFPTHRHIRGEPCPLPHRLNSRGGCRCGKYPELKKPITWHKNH

With “Arenacept (sAD fused at its C'-terminus to an Fc portion of IgG1) (Fc fusion)”, the pseudovirus neutralisation (luciferase, hTfR1-overexpressing HEK293 cells), IC50 in experiment [1] stood at 1.5 µg/mL; in experiment [2] it was 3.5 µg/mL.

B1: soluble apical domain (sAD) of Neotoma albigula (White-throated woodrat) TfR1 (receptor)
chain: GSKIQVKCSAPNSVTITNASGGLYLVEYPEGYVAYSKATEVTGKLVHANFGTKKDFEDLDYAVNGSIVIVRAGKITIAEKVANAQSFNAIGVLIYKDRTKYPISRADEPLQGHSGLPSIPVQTISREAAEKLFQNMERDCPRSWNTDSSCKLELLQNRNVKLTVNNCLKE
A word on the Kd: it is the constant that tells how readily two partners part at equilibrium. Lower therefore signals a tighter complex. On to B1, for which the Kd was determined as 1000 nM in experiment [3] and 360 nM in experiment [4].

Source of the values: US20200392203A1 (YEDA RESEARCH AND DEVELOPMENT, published 2020).
